Reference: the RNAGym collection of RNA variant scans (doi:10.1073/pnas.2313332121)

B1: TPR t1 (parent)
chain: GACCAAUCUGCCCUCAGAGCUCGAGAACAUCUUCGGAUGCAGAGGAGGCAGGCUUCGGUGGCGCGAUAGCGCCAACGUCCUCAACCUCCAAUGCAUCCCACCACAUGAUGAUGCCUGAAGAGCCUUGGUUUUUUG

Variants of: B1
Experiment: polymerase ribozyme fitness, log enrichment relative to wild type (log ratio); higher = more active; in vitro selection for triplet polymerase activity
Method in brief: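 Mutant libraries of both subunits of a heterodimeric triplet polymerase ribozyme were PCR-built, transcribed, and selected once in triplicate, with frozen incubation at −7 °C and capture of gel-excised extended constructs on streptavidin beads before RT-PCR. Illumina sequencing of input and output libraries was filtered to genotypes with ≥10 input reads and ≥1 read per output. Fitness is the logarithm of genotype enrichment over wild-type enrichment, using inverse-variance-weighted replicate averages. The logarithm is base 2.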

Row | Variant | polymerase ribozyme fitness (log ratio)
1 | GACCAAUCUGGCCUCAGAGCUCGAGAACAUCUUCGGAUGCAGAGGAGGUAGGCUUCGGUGGCGCGAUAGCGCCAACGUCCUCAACCUCCAAUGCAUCCCACCACAUGAUGAUGCCUGAAGAGCCUUGGUUUUUUG [C11G C49U] | 0.783
2 | GACCAAUCUGGCCUCAGAGCUCGAGAACAUCUUCGGAUGCAGAGGAGGCAGGAUUCGGUGCCGCGAUAGCGCCAACGUCCUCAACCUCCAAUGCAUCCCACCACAUGAUGAUGCCUGAAGAGCCUUGGUUUUUUG [C11G C53A G61C] | -4.59
3 | GACCAAUCUGGCCUCAGAGCUCGAGAACAUCUUCGGAUGCAGAGGAGGCAGGCUUCGGUGGCGCGAUAGCGCCAAUGACCUCAACCUCCAAUGCAUCCCACCACAUGAUGAUGCCUGAAGAGCCUUGGUUUUUUG [C11G C76U U78A] | 0.137
4 | GACCAAUCUGGCCUCAGAGCUCGAGAACAUCUUCGGAUGCAGAGGAGGCAGGGUUCGGUGGCGCGAUAGCGCCAACGUCCUCAACCUCCAAUGCAUCCCACCACAUGAUGAUGCCUGAAGAGCCUUGGUUUUUUG [C11G C53G] | -1.43
5 | GACCAAUCUGGCCUCAGAGCUCGAGAACAUCUUCGGAUGCAGAGGAGGCAGGCUUCGGUGGCGCGAUAGCGCCAACGUCUUCAACCUCCAAUGCAUCCCAACACAUGAUGAUGCCUGAAGAGCCUUGGUUUUUUG [C11G C80U C101A] | -0.977
6 | GACCAAUCUGGCCUCAGAGCUCGAGAACAUCUUCGGAUGCAGAGGAGGCAGGCUUCGGUGGCGCGAUAGCGCCAACGUCCUCAACCUACAAUGCAUCCCACCACAUGAUGAUGCCUGAAGAGCCUUGGUUUUUUG [C11G C88A] | -0.146
7 | GACCAAUCUGGCCUCAGAGCUCGAGAACAUCUUCGGAUGCAGAGGAGGCAGGCUUAGGUGGCGCGAUAGCGCCAACGUCCUCAACCUCCAAUGCAUCCCACCACAUGAUGAUGCCUGAAGAGCCUUGGUUUUUUG [C11G C56A] | -0.185
8 | GACCAAUCUGGCCUCAGAGCUCGAGAACAUCUUCGGAUGCAGAGGAGGCAGGCUUCGGUGGCGCGAUAGCGCCAAAGUUCUCAACCUCCUAUGCAUCCCACCACAUGAUGAUGCCUGACUAGCCUUGGUUUUUUG [C11G C76A C79U A90U A119C G120U] | -0.651
9 | GACCAAUCUGGCCUCAGAGCUCGAGAACAUCUUCGGAUGCAGAGGAGGCAGGGUUCGGUGGAGCGAUAGCGCCAACGUCCUCAACCUCAAAUGCAUCCCACCACAUGAUGAUGCCUGAAGAUCCUUGGUUUUUUG [C11G C53G C62A C89A G122U] | -3.13
10 | GACCAAUCUGGCCUCAGAGCUCGAGAACAUCUUCGGAUGCAGAGGAGGCAGGCUUCGGUGGCGCGAUAGCGGCAACGUCCUCAACCUCCACUGCAUCCCACCACAUGAUGAUGCCUGAAGAGCCUUGGUUUUUUG [C11G C72G A91C] | -0.65
11 | GACCAAUCUGGCCUCAGAGCUCGAGAACAUCUUCGGAUGCAGAGGAGGCAGGCUUCGGUGGCGCGAUAGCGCCAACGUCCUCAACCUCCAAUGCAUCCCACCACAUGAUGAUGGCUGAAGAGCCUUGGUUUUUUG [C11G C114G] | -2.38
12 | GACCAAUCUGGCCUCAGAGCUCGAGAACAUCUUCGGAUGCAGAGGAGGCAGGCUUCGGUGGCGCGAUAGCGCCAACGUACUCAACCUCCAAUGCAUCCCACCACAUGAUGAUGCCUGAACAGCCUUGGUUUUUUG [C11G C79A G120C] | 1.11
13 | GACCAAUCUGGCCUCAGAGCUCGAGAACAUCUUCGGAUGCAGAGGAGGCAGGCUUCGGUGGCGCGAUAGGGCCAACGUCCUCAACCUCCAAUGCAUCCCACCACAUGAUGAUGCCAGAAGAGCCUUGGCUUUUUG [C11G C70G U116A U129C] | -6.8
14 | GACCAAUCUGGCCUCAGAGCUCGAGAACAUCUUCGGAUGCAGAGGAGGCAGGCUUCGGUGGCGUGAUAGCGCCAACGUCCUCAACCUCCAAUGCAUCGCACCACACGAUGAUGCCUGAAGAGCCUUGGUUUUUUG [C11G C64U C98G U106C] | -6.08
15 | GACCAAUCUGGCCUCAGAGCUCGAGAACAUCUUCGGAUGCAGAGGAGGCAGGCUUCGGUGGCGCGAUAGUGCCAACGUCCUCAACCUCCAAUGCAUCCCACCACAUGAUGAUGCCUGAAGAUCCUUGGUUUUUUG [C11G C70U G122U] | -0.676
16 | GACCAAUCUGGCCUCAGAGCUCGAGAACAUCUUCGGAUGCAGAGGAGGCAGGCUUCGGUGGCGUGAUAGCGCCAACGUCCUCAACCUCCAAUGCAUCCCACCACAUGAUGAUGCCUCAAGAGCCUUGGUUUUUUG [C11G C64U G117C] | -1.98
17 | GACCAAUCUGGCCUCAGAGCUCGAGAACAUCUUCGGAUGCAGAGGAGGUAGGCUUCGGUGGCGCGAUAGCGCAAACAUCCUCAACCUCCAAUGCAUCCCACUACAUGAUUAUGCCUGAAGAGCCUUGGUUUUUUG [C11G C49U C73A G77A C102U G110U] | -6.69
18 | GACCAAUCUGGCCUCAGAGCUCGAGAACAUCUUCGGAUGCAGAGGAGGCAGGCUUCGGUGGCGCGAUAGCGCCAACGUCCUCAACUUCCAAUGCAUCCCACCACAUGAUGAUGCCUGAAGAGCCUUGGUUUUUUG [C11G C86U] | -0.354
19 | GACCAAUCUGGCCUCAGAGCUCGAGAACAUCUUCGGAUGCAGAGGAGGCAGGCUUCGGUGGCGCGAUAGCGCCAAGGUCCUCAACCUCCAAUGCAUCCCACCACAUGAUGAUGCCUGAAGAGCCUUGGUUUUUUG [C11G C76G] | -0.0651
20 | GACCAAUCUGGCCUCAGAGCUCGAGAACAUCUUCGGAUGCAGAGGAGGCAGGCUUCGGUGGCGCGAUAGAGCCAACGUCCUCAACCUCCAAUGCAUCCCACCACAUGAUGAUGCCUGAAGAGCCUUCGUUUUUUG [C11G C70A G127C] | -2.16
21 | GACCAAUCUGGCCUCAGAGCUCGAGAACAUCUUCGGAUGCAGAGGAGGCAGGCUUCGGUGGCGCGAUAGCGCCAACGUCCUCAACCUCCAAUGCAUCCCACCAAAUGAUGAUGCCUGAAGAGCCUUGGUAUUUUG [C11G C104A U130A] | -2.13

Row | Variant | polymerase ribozyme fitness (log ratio)
22 | GACCAAUCUGGCCUCAGAGCUCGAGAACAUCUUCGGAUGCAGAGGAGGCAGGCUUCGGUGGCGCGAUAGGGCCAACGUCCUCAACCUCCAAUGCAUCCCACCACAUGAUGAUGCCUGAAGAGCCUUGGUUUUUUG [C11G C70G] | -2.08
23 | GACCAAUCUGGCCUCAGAGCUCGAGAACAUCUUCGGAUGCAGAGGAGGCAGGCUUCGGUGGCGCGAUAGAGCCAACGUCCUCAACCUCCAAUGCAUCCCACCACAUGAUGAUGCCUGAAGAGCCUUGGUUUUUUG [C11G C70A] | -0.991
24 | GACCAAUCUGGCCUCAGAGCUCGAGAACAUCUUCGGAUGCAGAGGAGGCAGGCUUCGGUGGCGCGAUAGCGUCAACGUCCUCAACCUCCAAUGCAUCCCACCACAUGAUGAUGCCUGAAGAGCCUUGGUUUUUUG [C11G C72U] | 0.401
25 | GACCAAUCUGGCCUCAGAGCUCGAGAACAUCUUCGGAUGCAGAGGAGGCAGGCUUCGGUGGCGCGAUAGCGCCAACGUCCUAAACCUCCAAUGCAUCCCACCACAUGAUGAUGCCUGAAGAGCCUUGGUUUUUUG [C11G C82A] | -0.254
26 | GACCAAUCUGGCCUCAGAGCUCGAGAACAUCUUCGGAUGCAGAGGAGGCAGGCUUCGGUGGCGCGAUAGCGCCAACGUCCUCAACCUACAAUGCAUCCCACAACAUGAUGAUGCCUGAAGAGCCUUGGUUUUUUG [C11G C88A C102A] | -1.55
27 | GACCAAUCUGGCCUCAGAGCUCGAGAACAUCUUCGGAUGCAGAGGAGGCAGGCUUCGGUGGCGCGAUAGCGGCAACGUCCUCAACCUCCAAUGCAUCCCACCACAUGAUGAUGCCUAAAGAGCCUUGGUUUUUUG [C11G C72G G117A] | -0.843
28 | GACCAAUCUGGCCUCAGAGCUCGAGAACAUCUUCGGAUGCAGAGGAGGCAGGCUUCGGUGGCGCGAUAGCGCCAACGUCCUCAACCUCAAAUGCAUCCCACCACAUGAUGAUGCCUGAAGAGCCUUGGUUUUUUG [C11G C89A] | -1.26
29 | GACCAAUCUGGCCUCAGAGCUCGAGAACAUCUUCGGAUGCAGAGGAGGCAGGCUUCGGUGGCGCGAUAGCGCCAACGUCCUCAAGCUCCAAUGCAUCCCACCACAUGAUGAUGCCUAAAGAGCCUUGGUUUUUUG [C11G C85G G117A] | -1.6
30 | GACCAAUCUGGCCUCAGAGCUCGAGAACAUCUUCGGAUGCAGAGGAGGCAGGCUUGAGUGGCGCGAUAGCGCCAACGUCCUCAACCUCCAAUGCACCCCACCACAUGAUGAUUCCUGAAGAGCCUUGGUUUUUUG [C11G C56G G57A U96C G113U] | -3.3
31 | GACCAAUCUGGCCUCAGAGCUCGAGAACAUCUUCGGAUGCAGAGGAGGCAGGCUUUGGUGGCGCGAUAGCGCCAACGUCCUCAACCUCCAAUGCAUCCCACCACAUGAUGUUGCCUGAAGAGCCUUGGUUUUUUG [C11G C56U A111U] | -2.23
32 | GACCAAUCUGGCCUCAGAGCUCGAGAACAUCUUCGGAUGCAGAGGAGGCAGGCUUCGGUGGCGCGAUAGCGCCAACGUCCUCAACCUCCAAUGUAUCCCACCAGAUGAUGAUACCUGAAGAGCCUUGGUUUUUUG [C11G C94U C104G G113A] | -5.51
33 | GACCAAUCUGGCCUCAGAGCUCGAGAACAUCUUCGGAUGCAGAGGAGGGAGGCUUCGGUGGCGCGAUAGUGCCAACGUCCUCAACCUGCAAUGCAUCCCACCACAUGAUGUUGCCUGAAGAGCCUUCGUUUUUUG [C11G C49G C70U C88G A111U G127C] | -5.65
34 | GACCAAUCUGGCCUCAGAGCUCGAGAACAUCUUCGGAUGCAGAGGAGGCAGGCUUCGGUGGCGAGAUAGCGCCAACGUCCUCAACCUCCAAUGCAUCCCACCACAUGAUGUUGCCUGAAGAGCCUUGGUGUUUUG [C11G C64A A111U U130G] | -6.86
35 | GACCAAUCUGGCCUCAGAGCUCGAGAACAUCUUCGGAUGCAGAGGAGGCAGGCUUCGGUGGCGUGAUAGCGCCAACGUCCUCAUCCUCCAAUGCAUCCCACCACAUGAUGAUGCCUGAAGAGCCUUGGUUUUUUG [C11G C64U A84U] | -0.0856
36 | GACCAAUCUGGCCUCAGAGCUCGAGAACAUCUUCGGAUGCAGAGGAGGGAGGCUUCGGUGGCGCGAUAGCGCCAACGUCCUCAACCUCCUAUGCAUCCCACCACAUGAUGAUGCCUGAAGAGCGUUGGCUUUUUG [C11G C49G A90U C124G U129C] | -2.5
37 | GACCAAUCUGGCCUCAGAGCUCGAGAACAUCUUCGGAUGCAGAGGAGGCAGGCUUCGGUGGCGCGAUAGCGCCAACGUCCUCAACCUCCAAUGUAACCCACCACAUGAUGAUGCCUGAAGAGCCUUGGUUUUUUG [C11G C94U U96A] | -0.725
38 | GACCAAUCUGGCCUCAGAGCUCGAGAACAUCUUCGGAUGCAGAGGAGGCAGGGUUCGGUGGCGCGAUAGUGCCAACGUCCUCAACCUCCAAUGCAGCCCACCACCUGAUGAGGCCUGAAGAGCCUUGGUUUUUUG [C11G C53G C70U U96G A105C U112G] | -7.25
39 | GACCAAUCUGGCCUCAGAGCUCGAGAACAUCUUCGGAUGCAGAGGAGGCAGGCUUCGGUGGCGCGAUAGCGCCAACGUGCUAAACCUCCAAUGCAUCCCACCACAUGAUGAUGCCUGAAGAGCCUUGGUUUUUUG [C11G C79G C82A] | -1.78
40 | GACCAAUCUGGCCUCAGAGCUCGAGAACAUCUUCGGAUGCAGAGGAGGCAGGCUUCGGUGGCGCGAUAGCGCCAACGUCCUCAACCUCCAAUGCAUCCCAACACAUGAUGAUGCCUGAAGAGCCUUGGUUUUUUG [C11G C101A] | -0.692
41 | GACCAAUCUGGCCUCAGAGCUCGAGAACAUCUUCGGAUGCAGAGGAGGCAGGCUUCGGUGGCGGGAUAGCGCCAACGUCCUCAACCUCCAAUGCAUCCCACCACAUGAUGAUGCCUGAAGAGCCUUGGUUUUUUG [C11G C64G] | -6.21
42 | GACCAAUCUGGCCUCAGAGCUCGAGAACAUCUUCGGAUGCAGAGGAGGCAGGCUUCGGUGGCGCGAUAGCGCCAACGUCCUCAACCUCCAAUGCAUACCACCACAUGAUGAUGCCUGAAGAGCCUUGGUUUUUUG [C11G C97A] | -4.05
